Data taken from the supplement of paper PMC9112550, “Optimization of the antimicrobial peptide Bac7 by deep mutational scanning” (BMC Biology, 2022).

Tested on: Escherichia coli TOP10
Test: shrunken log2 fold change of peptide-encoding DNA abundance (4.5 h post-induction vs induction); higher = less antimicrobial activity (less host growth inhibition)
Details: time post-induction: 4.5 h; library: site-saturation at positions 5, 18, 19, 20
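Note: peptides expressed intracellularly from a pBAD plasmid library in pooled LB shake-flask culture, induced with 0.3% L-arabinose, DNA abundance read by NGS, three biological replicates, DESeq2 with apeglm shrinkage.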

RRIRNRPPRLPRPRPRPKIDPRP
shrunken log2 fold change: -0.626

RRIRNRPPRLPRPRPRPKIPPRP
shrunken log2 fold change: -0.255

RRIRNRPPRLPRPRPRPKKPPRP
shrunken log2 fold change: -0.0506

RRIRNRPPRLPRPRPRPKKSPRP
shrunken log2 fold change: 0.129

RRIRNRPPRLPRPRPRPKKTPRP
shrunken log2 fold change: -0.197

RRIRNRPPRLPRPRPRPKLCPRP
shrunken log2 fold change: 0.163

RRIRNRPPRLPRPRPRPKNVPRP
shrunken log2 fold change: -0.267

RRIRNRPPRLPRPRPRPKPEPRP
shrunken log2 fold change: 0.0739

RRIRNRPPRLPRPRPRPKPLPRP
shrunken log2 fold change: -0.102

RRIRNRPPRLPRPRPRPKPQPRP
shrunken log2 fold change: 0.41

RRIRNRPPRLPRPRPRPKQSPRP
shrunken log2 fold change: -0.135

RRIRNRPPRLPRPRPRPKRAPRP
shrunken log2 fold change: 0.146

RRIRNRPPRLPRPRPRPKTAPRP
shrunken log2 fold change: -0.232

RRIRNRPPRLPRPRPRPKTRPRP
shrunken log2 fold change: 0.138

RRIRNRPPRLPRPRPRPKVDPRP
shrunken log2 fold change: 0.147

RRIRNRPPRLPRPRPRPKWTPRP
shrunken log2 fold change: -0.0342

RRIRNRPPRLPRPRPRPKYFPRP
shrunken log2 fold change: -0.0727

RRIRNRPPRLPRPRPRPKYKPRP
shrunken log2 fold change: -0.726

RRIRNRPPRLPRPRPRPLAMPRP
shrunken log2 fold change: -0.21

RRIRNRPPRLPRPRPRPLAVPRP
shrunken log2 fold change: 0.0686

RRIRNRPPRLPRPRPRPLCQPRP
shrunken log2 fold change: -0.307

RRIRNRPPRLPRPRPRPLCRPRP
shrunken log2 fold change: -0.372

RRIRNRPPRLPRPRPRPLCVPRP
shrunken log2 fold change: -0.197

RRIRNRPPRLPRPRPRPLCYPRP
shrunken log2 fold change: -0.781

RRIRNRPPRLPRPRPRPLDDPRP
shrunken log2 fold change: -0.0578

RRIRNRPPRLPRPRPRPLDSPRP
shrunken log2 fold change: -0.125

RRIRNRPPRLPRPRPRPLEDPRP
shrunken log2 fold change: 0.0414

RRIRNRPPRLPRPRPRPLFSPRP
shrunken log2 fold change: -0.753

RRIRNRPPRLPRPRPRPLGCPRP
shrunken log2 fold change: -0.27

RRIRNRPPRLPRPRPRPLGMPRP
shrunken log2 fold change: -0.109

RRIRNRPPRLPRPRPRPLIEPRP
shrunken log2 fold change: -0.284

RRIRNRPPRLPRPRPRPLKCPRP
shrunken log2 fold change: 0.0144

RRIRNRPPRLPRPRPRPLKKPRP
shrunken log2 fold change: -0.0418

RRIRNRPPRLPRPRPRPLLWPRP
shrunken log2 fold change: 0.369

RRIRNRPPRLPRPRPRPLMDPRP
shrunken log2 fold change: 0.0545

RRIRNRPPRLPRPRPRPLMGPRP
shrunken log2 fold change: -0.254

RRIRNRPPRLPRPRPRPLMPPRP
shrunken log2 fold change: -0.173

RRIRNRPPRLPRPRPRPLMQPRP
shrunken log2 fold change: -0.0301

RRIRNRPPRLPRPRPRPLNWPRP
shrunken log2 fold change: -0.269

RRIRNRPPRLPRPRPRPLPGPRP
shrunken log2 fold change: 0.143

RRIRNRPPRLPRPRPRPLPKPRP
shrunken log2 fold change: 0.402

RRIRNRPPRLPRPRPRPLPRPRP
shrunken log2 fold change: 0.102

RRIRNRPPRLPRPRPRPLRPPRP
shrunken log2 fold change: 0.998

RRIRNRPPRLPRPRPRPLSLPRP
shrunken log2 fold change: -0.291

RRIRNRPPRLPRPRPRPLSYPRP
shrunken log2 fold change: -0.319

RRIRNRPPRLPRPRPRPLVVPRP
shrunken log2 fold change: -0.117

RRIRNRPPRLPRPRPRPLWCPRP
shrunken log2 fold change: -0.0608

RRIRNRPPRLPRPRPRPLWEPRP
shrunken log2 fold change: -0.106

RRIRNRPPRLPRPRPRPLWIPRP
shrunken log2 fold change: -0.286

RRIRNRPPRLPRPRPRPLWKPRP
shrunken log2 fold change: -0.422

RRIRNRPPRLPRPRPRPLWMPRP
shrunken log2 fold change: -0.587

RRIRNRPPRLPRPRPRPLWVPRP
shrunken log2 fold change: -0.0871

RRIRNRPPRLPRPRPRPLYQPRP
shrunken log2 fold change: -0.357

RRIRNRPPRLPRPRPRPMATPRP
shrunken log2 fold change: -0.0123

RRIRNRPPRLPRPRPRPMCRPRP
shrunken log2 fold change: -0.0579

RRIRNRPPRLPRPRPRPMDVPRP
shrunken log2 fold change: 0.0039

RRIRNRPPRLPRPRPRPMEQPRP
shrunken log2 fold change: -0.208

RRIRNRPPRLPRPRPRPMGPPRP
shrunken log2 fold change: 0.0762

RRIRNRPPRLPRPRPRPMHGPRP
shrunken log2 fold change: -0.0225

RRIRNRPPRLPRPRPRPMHHPRP
shrunken log2 fold change: -0.653

RRIRNRPPRLPRPRPRPMIFPRP
shrunken log2 fold change: -0.287

RRIRNRPPRLPRPRPRPMIKPRP
shrunken log2 fold change: -0.456

RRIRNRPPRLPRPRPRPMILPRP
shrunken log2 fold change: -0.0112

RRIRNRPPRLPRPRPRPMIRPRP
shrunken log2 fold change: -0.0231

RRIRNRPPRLPRPRPRPMKNPRP
shrunken log2 fold change: -0.238

RRIRNRPPRLPRPRPRPMMLPRP
shrunken log2 fold change: -0.0295

RRIRNRPPRLPRPRPRPMMRPRP
shrunken log2 fold change: 0.0611

RRIRNRPPRLPRPRPRPMNGPRP
shrunken log2 fold change: 0.015

RRIRNRPPRLPRPRPRPMNWPRP
shrunken log2 fold change: 0.127

RRIRNRPPRLPRPRPRPMPIPRP
shrunken log2 fold change: -0.0173

RRIRNRPPRLPRPRPRPMPNPRP
shrunken log2 fold change: -0.0406

RRIRNRPPRLPRPRPRPMRIPRP
shrunken log2 fold change: 0.134

RRIRNRPPRLPRPRPRPMSHPRP
shrunken log2 fold change: -0.249

RRIRNRPPRLPRPRPRPMSRPRP
shrunken log2 fold change: -0.094

RRIRNRPPRLPRPRPRPMTWPRP
shrunken log2 fold change: 0.0964

RRIRNRPPRLPRPRPRPMVCPRP
shrunken log2 fold change: -0.018

RRIRNRPPRLPRPRPRPMVQPRP
shrunken log2 fold change: -0.0629

RRIRNRPPRLPRPRPRPMWCPRP
shrunken log2 fold change: -0.0647

RRIRNRPPRLPRPRPRPMWHPRP
shrunken log2 fold change: -0.404

RRIRNRPPRLPRPRPRPMWPPRP
shrunken log2 fold change: -0.00481

RRIRNRPPRLPRPRPRPMYVPRP
shrunken log2 fold change: 0.0786

RRIRNRPPRLPRPRPRPMYWPRP
shrunken log2 fold change: -0.000123

RRIRNRPPRLPRPRPRPMYYPRP
shrunken log2 fold change: 0.0222

RRIRNRPPRLPRPRPRPNAAPRP
shrunken log2 fold change: -0.149

RRIRNRPPRLPRPRPRPNAPPRP
shrunken log2 fold change: -0.194

RRIRNRPPRLPRPRPRPNCHPRP
shrunken log2 fold change: 0.0111

RRIRNRPPRLPRPRPRPNCVPRP
shrunken log2 fold change: 0.393

RRIRNRPPRLPRPRPRPNDCPRP
shrunken log2 fold change: 0.0423

RRIRNRPPRLPRPRPRPNEEPRP
shrunken log2 fold change: -0.00613

RRIRNRPPRLPRPRPRPNFFPRP
shrunken log2 fold change: 0.0771

RRIRNRPPRLPRPRPRPNFYPRP
shrunken log2 fold change: -0.225

RRIRNRPPRLPRPRPRPNGAPRP
shrunken log2 fold change: -0.0902

RRIRNRPPRLPRPRPRPNKMPRP
shrunken log2 fold change: -0.0283

RRIRNRPPRLPRPRPRPNNFPRP
shrunken log2 fold change: -0.447

RRIRNRPPRLPRPRPRPNNHPRP
shrunken log2 fold change: -0.741

RRIRNRPPRLPRPRPRPNNNPRP
shrunken log2 fold change: -0.867

RRIRNRPPRLPRPRPRPNPCPRP
shrunken log2 fold change: -0.1

RRIRNRPPRLPRPRPRPNSIPRP
shrunken log2 fold change: -0.728

RRIRNRPPRLPRPRPRPNSNPRP
shrunken log2 fold change: -0.744

RRIRNRPPRLPRPRPRPNSRPRP
shrunken log2 fold change: -0.266

RRIRNRPPRLPRPRPRPNTMPRP
shrunken log2 fold change: 0.402

RRIRNRPPRLPRPRPRPNVCPRP
shrunken log2 fold change: 0.00455

RRIRNRPPRLPRPRPRPNVDPRP
shrunken log2 fold change: 0.112

RRIRNRPPRLPRPRPRPNVKPRP
shrunken log2 fold change: -0.324

RRIRNRPPRLPRPRPRPNVLPRP
shrunken log2 fold change: -0.178

RRIRNRPPRLPRPRPRPNYFPRP
shrunken log2 fold change: 0.169

RRIRNRPPRLPRPRPRPNYIPRP
shrunken log2 fold change: -0.318

RRIRNRPPRLPRPRPRPPAKPRP
shrunken log2 fold change: 0.521

RRIRNRPPRLPRPRPRPPANPRP
shrunken log2 fold change: 0.262

RRIRNRPPRLPRPRPRPPCDPRP
shrunken log2 fold change: -0.0173

RRIRNRPPRLPRPRPRPPCMPRP
shrunken log2 fold change: -0.0283

RRIRNRPPRLPRPRPRPPCVPRP
shrunken log2 fold change: 0.0341

RRIRNRPPRLPRPRPRPPDLPRP
shrunken log2 fold change: 0.101

RRIRNRPPRLPRPRPRPPENPRP
shrunken log2 fold change: 0.181

RRIRNRPPRLPRPRPRPPFGPRP
shrunken log2 fold change: 0.291

RRIRNRPPRLPRPRPRPPGTPRP
shrunken log2 fold change: 0.241

RRIRNRPPRLPRPRPRPPIAPRP
shrunken log2 fold change: -0.312

RRIRNRPPRLPRPRPRPPICPRP
shrunken log2 fold change: 0.0224

RRIRNRPPRLPRPRPRPPKIPRP
shrunken log2 fold change: 0.0999

RRIRNRPPRLPRPRPRPPKYPRP
shrunken log2 fold change: -0.349

RRIRNRPPRLPRPRPRPPLFPRP
shrunken log2 fold change: 0.00419

RRIRNRPPRLPRPRPRPPMIPRP
shrunken log2 fold change: 0.102

RRIRNRPPRLPRPRPRPPMVPRP
shrunken log2 fold change: -0.0558

RRIRNRPPRLPRPRPRPPNWPRP
shrunken log2 fold change: 0.217

RRIRNRPPRLPRPRPRPPPPPRP
shrunken log2 fold change: 1.25

RRIRNRPPRLPRPRPRPPPTPRP
shrunken log2 fold change: 0.867

RRIRNRPPRLPRPRPRPPPYPRP
shrunken log2 fold change: 0.534

RRIRNRPPRLPRPRPRPPQEPRP
shrunken log2 fold change: -0.0479

RRIRNRPPRLPRPRPRPPQSPRP
shrunken log2 fold change: 0.331

RRIRNRPPRLPRPRPRPPQVPRP
shrunken log2 fold change: 0.0214

RRIRNRPPRLPRPRPRPPSRPRP
shrunken log2 fold change: 0.228

RRIRNRPPRLPRPRPRPPSYPRP
shrunken log2 fold change: -0.14

RRIRNRPPRLPRPRPRPPVRPRP
shrunken log2 fold change: 0.489

RRIRNRPPRLPRPRPRPPYIPRP
shrunken log2 fold change: -0.335

RRIRNRPPRLPRPRPRPQAVPRP
shrunken log2 fold change: -0.0343

RRIRNRPPRLPRPRPRPQCTPRP
shrunken log2 fold change: -0.123

RRIRNRPPRLPRPRPRPQDTPRP
shrunken log2 fold change: -0.0984

RRIRNRPPRLPRPRPRPQEFPRP
shrunken log2 fold change: -0.0043

RRIRNRPPRLPRPRPRPQEGPRP
shrunken log2 fold change: 0.0303

RRIRNRPPRLPRPRPRPQFKPRP
shrunken log2 fold change: -0.3

RRIRNRPPRLPRPRPRPQFPPRP
shrunken log2 fold change: -0.148

RRIRNRPPRLPRPRPRPQGPPRP
shrunken log2 fold change: 0.0355

RRIRNRPPRLPRPRPRPQHRPRP
shrunken log2 fold change: -0.215

RRIRNRPPRLPRPRPRPQHYPRP
shrunken log2 fold change: -0.319

RRIRNRPPRLPRPRPRPQKHPRP
shrunken log2 fold change: -0.227

RRIRNRPPRLPRPRPRPQLPPRP
shrunken log2 fold change: -0.352

RRIRNRPPRLPRPRPRPQMDPRP
shrunken log2 fold change: 0.0304

RRIRNRPPRLPRPRPRPQMMPRP
shrunken log2 fold change: -0.227

RRIRNRPPRLPRPRPRPQNEPRP
shrunken log2 fold change: -0.331

RRIRNRPPRLPRPRPRPQNSPRP
shrunken log2 fold change: -0.38
